{"source": "paper PMC7255509", "about": "“Crystal structure of the catalytic C‐lobe of the HECT‐type ubiquitin ligase E6AP” (Protein Science : A Publication of the Protein Society, 2020)", "proteins": {"B1": {"name": "C-lobe of the catalytic (HECT) domain of E6AP (domain or fragment, UniProt Q05086-2 741-852, looked up)", "chain": "NLDFQALEETTEYDGGYTRDSVLIREFWEIVHSFTDEQKRLFLQFTTGTDRAPVGGLGKLKMIIAKNGPDTERLPTSHTCFNVLLLPEYSSKEKLKERLLKAITYAKGFGML", "notes": "E6AP (UBE3A), HECT-type ubiquitin ligase, C-lobe of the catalytic domain, residues 741-852; catalytic Cys820; numbers count on: isoform 1 (ends at residue 852); Cleavage by 3C protease may leave a few residues of the vector at the N-terminus; In the crystal the two Cys820 are read as partly joined by an intermolecular disulfide; also called E6AP C-lobe; C-terminal lobe of E6AP; source: E. coli …"}}, "target": "the molecule itself", "assay": "crystal structure; crystallised at >=30 mg/ml (crystal used: 60 mg/ml), 20°C, sitting drops, 0.1 M calcium chloride, 0.1 M sodium acetate pH 4.6, 30% PEG400; 1.3 Å; dimer of two symmetry-related molecules", "data": [{"protein": "B1", "values": [{"measurement": "stoichiometry N", "value": 2}]}]}
